Results: patent US20200017592A1
Where two headings read alike, the source gives them in different places. One block for each substance: values may come before it.

How the values were obtained:
[1] = target: full-length human IL-36R on cells (human) (UniProt Q9HB29)
[2] = target: full-length human IL-36R on cells (human) (UniProt Q9HB29); remark: listed apart in the source
[3] = target: full-length human IL-36R on cells (human) (UniProt Q9HB29); assay: cell-based or functional assay
[4] = target: Macaca fascicularis IL-36R on cells (Macaca fascicularis); assay: cell-based or functional assay
Chain of Macaca fascicularis IL-36R on cells (Macaca fascicularis) (chain, as listed by the source): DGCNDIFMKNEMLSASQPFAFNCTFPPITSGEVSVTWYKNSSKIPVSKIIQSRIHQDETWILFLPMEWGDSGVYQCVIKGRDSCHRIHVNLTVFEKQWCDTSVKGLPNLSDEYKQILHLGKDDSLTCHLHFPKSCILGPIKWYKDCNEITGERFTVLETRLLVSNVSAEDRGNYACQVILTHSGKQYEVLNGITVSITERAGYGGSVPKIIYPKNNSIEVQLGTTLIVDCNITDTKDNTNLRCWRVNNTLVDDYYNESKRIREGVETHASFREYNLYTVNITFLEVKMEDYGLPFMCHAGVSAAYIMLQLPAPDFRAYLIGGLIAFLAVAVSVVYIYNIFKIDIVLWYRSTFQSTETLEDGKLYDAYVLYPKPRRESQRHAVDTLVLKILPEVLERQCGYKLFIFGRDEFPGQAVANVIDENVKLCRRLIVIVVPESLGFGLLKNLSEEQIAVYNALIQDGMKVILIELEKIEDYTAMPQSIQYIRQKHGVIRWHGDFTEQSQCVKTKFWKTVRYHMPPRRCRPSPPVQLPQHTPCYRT

[5] = target: full-length human IL-36R on cells (human) (UniProt Q9HB29); remark: listed apart in the source
[6] = target: full-length human IL-36R on cells (human) (UniProt Q9HB29); remark: listed apart in the source
[7] = target: T1, human IL-36R (IL1RL2) on primary human cells (human) (UniProt Q9HB29); assay: cell-based or functional assay
T1 sequence (looked up): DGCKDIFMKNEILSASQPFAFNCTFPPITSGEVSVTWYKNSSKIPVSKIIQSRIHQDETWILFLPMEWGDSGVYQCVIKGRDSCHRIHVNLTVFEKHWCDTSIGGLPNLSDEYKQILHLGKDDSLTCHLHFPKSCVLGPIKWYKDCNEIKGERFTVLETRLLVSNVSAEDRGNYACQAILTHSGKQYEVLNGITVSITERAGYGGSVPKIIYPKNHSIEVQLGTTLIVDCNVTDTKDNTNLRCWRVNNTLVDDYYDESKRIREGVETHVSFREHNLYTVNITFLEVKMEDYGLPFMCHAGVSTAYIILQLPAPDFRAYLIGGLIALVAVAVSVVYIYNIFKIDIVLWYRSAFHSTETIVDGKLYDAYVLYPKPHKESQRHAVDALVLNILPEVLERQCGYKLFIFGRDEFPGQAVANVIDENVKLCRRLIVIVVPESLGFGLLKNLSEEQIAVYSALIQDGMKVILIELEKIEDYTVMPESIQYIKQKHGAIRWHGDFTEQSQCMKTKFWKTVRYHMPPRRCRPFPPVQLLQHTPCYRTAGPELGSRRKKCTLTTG

EC50 (read off the curve) of hIL36α, NFκB-luciferase RLU, in the presence of 0.1 nM REGN6489 [1]: 0.04 nM
EC50 (read off the curve) of hIL36α, NFκB-luciferase RLU, in the presence of 0.3 nM REGN6489 [1]: 0.2 nM
EC50 (read off the curve) of hIL36α, NFκB-luciferase RLU, in the presence of 1 nM REGN6489 [1]: 0.6 nM
EC50 (read off the curve) of hIL36α, NFκB-luciferase RLU, in the presence of 3 nM REGN6489 [1]: 2 nM
EC50 (read off the curve) of hIL36α, NFκB-luciferase RLU, in the presence of 9 nM REGN6489 [1]: 5 nM
EC50 (read off the curve) of hIL36α, NFκB-luciferase RLU, no antibody [1]: 0.02 nM
EC50 (read off the curve) of hIL36α, NFκB-luciferase RLU, in the presence of 0.3 nM REGN6490 [2]: 0.05 nM
EC50 (read off the curve) of hIL36α, NFκB-luciferase RLU, in the presence of 1 nM REGN6490 [2]: 0.2 nM
EC50 (read off the curve) of hIL36α, NFκB-luciferase RLU, in the presence of 3 nM REGN6490 [2]: 0.7 nM
EC50 (read off the curve) of hIL36α, NFκB-luciferase RLU, in the presence of 9 nM REGN6490 [2]: 2 nM
EC50, NFκB-luciferase, HEK293/NFκB-luc/hIL-36R cells [3]: 0.012 nM
EC50, NFκB-luciferase, HEK293/NFκB-luc/MfIL-36R cells [4]: 0.17 nM
Substance: human IL-36α (from UniProt Q9UHA7 6-158) (ligand)

EC50 (read off the curve) of hIL36γ, NFκB-luciferase RLU, in the presence of 0.1 nM REGN6489 [5]: 0.002 nM
EC50 (read off the curve) of hIL36γ, NFκB-luciferase RLU, in the presence of 0.3 nM REGN6489 [5]: 0.008 nM
EC50 (read off the curve) of hIL36γ, NFκB-luciferase RLU, in the presence of 1 nM REGN6489 [5]: 0.03 nM
EC50 (read off the curve) of hIL36γ, NFκB-luciferase RLU, in the presence of 3 nM REGN6489 [5]: 0.1 nM
EC50 (read off the curve) of hIL36γ, NFκB-luciferase RLU, in the presence of 9 nM REGN6489 [5]: 0.3 nM
EC50 (read off the curve) of hIL36γ, NFκB-luciferase RLU, no antibody [5]: 0.001 nM
EC50 (read off the curve) of hIL36γ, NFκB-luciferase RLU, in the presence of 0.3 nM REGN6490 [6]: 0.004 nM
EC50 (read off the curve) of hIL36γ, NFκB-luciferase RLU, in the presence of 1 nM REGN6490 [6]: 0.02 nM
EC50 (read off the curve) of hIL36γ, NFκB-luciferase RLU, in the presence of 3 nM REGN6490 [6]: 0.06 nM
EC50 (read off the curve) of hIL36γ, NFκB-luciferase RLU, in the presence of 9 nM REGN6490 [6]: 0.2 nM
EC50 (read off the curve) of hIL36γ, NFκB-luciferase RLU, no antibody [6]: 0.003 nM
EC50, NFκB-luciferase, HEK293/NFκB-luc/hIL-36R cells [3]: 0.0084 nM
EC50, NFκB-luciferase, HEK293/NFκB-luc/MfIL-36R cells [4]: 0.062 nM
Substance: human IL-36γ (from UniProt Q9NZH8 18-169) (ligand)

EC50[M], IL-8 production, Intestinal MyoFibroblasts (InMyoFib), hIL-36α [7]: 1.41e-09 M
EC50[M], IL-8 production, Normal Epidermal Keratinocytes (NHEK), hIL-36α [7]: 1.43e-09 M
EC50[M], IL-8 production, PB-derived CD14+ Monocytes, hIL-36α [7]: 2.75e-09 M
Substance: rhIL-36α/IL-1F6 [aa6-158] (from UniProt Q9UHA7 6-158) (ligand)

EC50[M], IL-8 production, Intestinal MyoFibroblasts (InMyoFib), hIL-36γ [7]: 1.46e-09 M
EC50[M], IL-8 production, Normal Epidermal Keratinocytes (NHEK), hIL-36γ [7]: 4e-09 M
EC50[M], IL-8 production, PB-derived CD14+ Monocytes, hIL-36γ [7]: 2.75e-09 M
Substance: rhIL-36γ/IL-1F9 [aa18-169] (from UniProt Q9NZH8 18-169) (ligand)
